The text below walks through data of paper PMC6640040 (Nature, 2016).

Common to all, as to experiment: pull-down
Assay [1] addresses wild-type ClpP(6His) (B. subtilis, UniProt P80244 1-197).
Assay [2] has as its target ClpP(6His)^TRAP (B. subtilis, UniProt P80244 1-197, Ser98Ala).
Assay [3] deals with T1, MecA (B. subtilis, UniProt P37958 1-218).
T1 sequence (looked up): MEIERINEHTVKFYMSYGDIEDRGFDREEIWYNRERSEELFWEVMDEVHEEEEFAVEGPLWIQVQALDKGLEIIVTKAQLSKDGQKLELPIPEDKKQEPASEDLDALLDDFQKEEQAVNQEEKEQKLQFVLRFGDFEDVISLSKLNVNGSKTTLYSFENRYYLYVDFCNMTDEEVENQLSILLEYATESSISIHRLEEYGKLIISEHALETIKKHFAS

B1: endogenous ClpP (enzyme)
chain: not shown
In the case of B1, the binding result in assay [1] and in assay [2] was “binds” each time.

B2: ClpC^NTD(1–150) (domain or fragment, B. subtilis, UniProt P37571 1-150, looked up)
chain: MMFGRFTERAQKVLALAQEEALRLGHNNIGTEHILLGLVREGEGIAAKALQALGLGSEKIQKEVESLIGRGQEMSQTIHYTPRAKKVIELSMDEARKLGHSYVGTEHILLGLIREGEGVAARVLNNLGVSLNKARQQVLQLLGSNETGSS
With B2, the binding result in assay [3] was “binds”.

B3: ClpC NTD^EA mutant (domain or fragment, B. subtilis, UniProt P37571 1-150, looked up)
chain: MMFGRFTERAQKVLALAQEEALRLGHNNIGTAHILLGLVREGEGIAAKALQALGLGSEKIQKEVESLIGRGQEMSQTIHYTPRAKKVIELSMDEARKLGHSYVGTAHILLGLIREGEGVAARVLNNLGVSLNKARQQVLQLLGSNETGSS
In the case of B3, the binding result in assay [3] was “binds”.
